Values quoted from earlier work, collected in paper PMC9594322.

Biological target: HIF-1β PAS-B (Homo sapiens) (UniProt P27540)
Sequence (P27540 356-470): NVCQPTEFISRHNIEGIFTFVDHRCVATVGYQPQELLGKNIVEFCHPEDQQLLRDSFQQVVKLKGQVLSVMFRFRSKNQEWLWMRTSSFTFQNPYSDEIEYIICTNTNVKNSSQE

Sequence of HIF-1α PAS-B (Q16665 238-349): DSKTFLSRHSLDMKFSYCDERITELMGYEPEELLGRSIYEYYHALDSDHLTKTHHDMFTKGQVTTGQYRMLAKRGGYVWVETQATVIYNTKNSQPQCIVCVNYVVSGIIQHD

HIF-1α PAS-B (from UniProt Q16665)
Kd: 378 nM
